Results on 18 molecules are retold here after US20250136721A1 (GlaxoSmithKline, published 2025).

Substitutions are numbered along the chain they refer to. In names and notes the source's numbering stands. Several values for one entry are separate records, joined by “and”; a condition that tells them apart may be missing. Identical values can stand only once.

T1: human TNFR1 (on human cells) (human, UniProt P19438 30-455)
T1 sequence (looked up): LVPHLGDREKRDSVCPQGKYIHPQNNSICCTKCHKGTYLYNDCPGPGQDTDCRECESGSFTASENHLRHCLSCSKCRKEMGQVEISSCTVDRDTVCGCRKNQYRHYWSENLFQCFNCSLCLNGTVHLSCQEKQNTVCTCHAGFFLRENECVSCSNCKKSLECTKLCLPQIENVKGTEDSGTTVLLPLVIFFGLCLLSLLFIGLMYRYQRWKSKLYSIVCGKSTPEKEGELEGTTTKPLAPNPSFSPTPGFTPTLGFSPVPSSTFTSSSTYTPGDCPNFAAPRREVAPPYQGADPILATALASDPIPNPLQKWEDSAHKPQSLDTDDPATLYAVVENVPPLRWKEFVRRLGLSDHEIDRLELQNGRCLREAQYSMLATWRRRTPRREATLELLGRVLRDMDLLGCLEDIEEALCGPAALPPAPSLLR

T2: cynomolgus monkey TNFR1 (on monkey cells) (cynomolgus monkey, UniProt Q2PFV5 30-455)
T2 sequence: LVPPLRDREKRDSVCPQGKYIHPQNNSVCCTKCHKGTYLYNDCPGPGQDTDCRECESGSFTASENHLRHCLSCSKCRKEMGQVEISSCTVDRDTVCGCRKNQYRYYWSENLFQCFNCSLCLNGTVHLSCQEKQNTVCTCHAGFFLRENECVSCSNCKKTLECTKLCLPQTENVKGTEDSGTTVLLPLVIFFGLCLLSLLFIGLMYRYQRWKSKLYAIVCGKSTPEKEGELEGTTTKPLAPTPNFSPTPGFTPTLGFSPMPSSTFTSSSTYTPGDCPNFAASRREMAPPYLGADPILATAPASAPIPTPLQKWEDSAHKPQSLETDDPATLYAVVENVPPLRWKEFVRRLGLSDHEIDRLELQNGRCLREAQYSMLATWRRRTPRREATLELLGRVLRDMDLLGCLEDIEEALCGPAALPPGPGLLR

T3: Recombinant human TNFR1-Fc (human, UniProt P19438 30-211, limits assumed)
T3 construct: bought reagent; also called hTNFR1:Fc; not shown: Fc part; not described
T3 sequence (looked up): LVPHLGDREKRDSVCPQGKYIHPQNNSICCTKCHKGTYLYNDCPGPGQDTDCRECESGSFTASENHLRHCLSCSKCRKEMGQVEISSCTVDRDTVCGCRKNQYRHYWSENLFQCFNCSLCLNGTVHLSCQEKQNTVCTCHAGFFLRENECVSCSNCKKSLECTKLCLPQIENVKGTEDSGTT

T4: cynomolgus monkey TNFR1 (cynomolgus monkey, UniProt Q2PFV5 30-211)
T4 sequence: T3 sequence (looked up) with H4P, G6R, I28V, H105Y, S159T, I170T

B1: DOM1H-131-206 with a C-terminal alanine extension (other)
VH: EVQLLESGGGLVQPGGSLRLSCAASGFTFAHETMVWVRQAPGKGLEWVSHIPPDGQDPFYADSVKGRFTISRDNSKNTLYLQMNSLRAEDTAVYHCALLPKRGPWFDYWGQGTLVTVSSA
notes: VH dAb variant
B2: DOM1H-131-206 (other)
VH: EVQLLESGGGLVQPGGSLRLSCAASGFTFAHETMVWVRQAPGKGLEWVSHIPPDGQDPFYADSVKGRFTISRDNSKNTLYLQMNSLRAEDTAVYHCALLPKRGPWFDYWGQGTLVTVSS
notes: human anti-TNFR1 VH domain antibody (dAb); biotinylated or Sulfo-Tag labelled where it is the assay reagent
B3: DOM10H-53-567 C-terminal ASTK (protein)
VH: GVQLLESGGGLVQPGGSLRLSCAASGFVFAWYDMGWVRQAPGKGLEWVSSIDWHGEVTYYADSVKGRFTISRDNSKNTLYLQMNSLRAEDTAVYYCATAEDEPGYDYWGQGTLVTVSSASTK
B4: DOM10H-53-567 C-terminal AS (protein)
VH: GVQLLESGGGLVQPGGSLRLSCAASGFVFAWYDMGWVRQAPGKGLEWVSSIDWHGEVTYYADSVKGRFTISRDNSKNTLYLQMNSLRAEDTAVYYCATAEDEPGYDYWGQGTLVTVSSAS
B5: DOM10H-53-567 (protein)
VH: GVQLLESGGGLVQPGGSLRLSCAASGFVFAWYDMGWVRQAPGKGLEWVSSIDWHGEVTYYADSVKGRFTISRDNSKNTLYLQMNSLRAEDTAVYYCATAEDEPGYDYWGQGTLVTVSS
B6: DOM10H-53-567 C-terminal A (protein)
VH: GVQLLESGGGLVQPGGSLRLSCAASGFVFAWYDMGWVRQAPGKGLEWVSSIDWHGEVTYYADSVKGRFTISRDNSKNTLYLQMNSLRAEDTAVYYCATAEDEPGYDYWGQGTLVTVSSA
B7: DOM10H-53-567 C-terminal AST (protein)
VH: GVQLLESGGGLVQPGGSLRLSCAASGFVFAWYDMGWVRQAPGKGLEWVSSIDWHGEVTYYADSVKGRFTISRDNSKNTLYLQMNSLRAEDTAVYYCATAEDEPGYDYWGQGTLVTVSSAST
B8: DOM10H-53-567 C-terminal ASTKG (protein)
VH: GVQLLESGGGLVQPGGSLRLSCAASGFVFAWYDMGWVRQAPGKGLEWVSSIDWHGEVTYYADSVKGRFTISRDNSKNTLYLQMNSLRAEDTAVYYCATAEDEPGYDYWGQGTLVTVSSASTKG
B9: DOM1H-131-206 R83A (other, name in Kabat numbering)
VH: B2 VH with R87A
notes: VH dAb variant
B10: DOM1H-131-206 G44E, L108Q (other, name in Kabat numbering)
VH: B2 VH with G44E, L114Q
notes: VH dAb variant
B11: DOM1H-131-206 G44E, H91S (other, name in Kabat numbering)
VH: B2 VH with G44E, H95S
notes: VH dAb variant
B12: DOM1H-131-206 P14A, H91S (other, name in Kabat numbering)
VH: B2 VH with P14A, H95S
notes: VH dAb variant
B13: DOM1H-131-206 G44E (other, name in Kabat numbering)
VH: B2 VH with G44E
notes: VH dAb variant
B14: DOM1H-131-206 P41A (other, name in Kabat numbering)
VH: B2 VH with P41A
notes: VH dAb variant
B15: DOM1H-131-206 P14A, G44E (other, name in Kabat numbering)
VH: B2 VH with P14A, G44E
notes: VH dAb variant
B16: DOM1H-131-206 H91S (other, name in Kabat numbering)
VH: B2 VH with H95S
notes: VH dAb variant
B17: DOM1H-131-206 K43A (other, name in Kabat numbering)
VH: B2 VH with K43A
notes: VH dAb variant
B18: Clone VHH2(f) (VHH)
VHH: EVQLVESGGGLVQPGGSLRLSCAASGRTFSYNPMGWFRQAPGKGRELVAAISRTGGSTYYPDSVEGRFTISRDNAKRMVYLQMNSLRAEDTAVYYCAAAGVRAEDGRVRTLPSEYTFWGQGTQVTVSSAAAEVQLVESGGGLVQPGGSLRLSCAASGRTFSYNPMGWFRQAPGKGRELVAAISRTGGSTYYPDSVEGRFTISRDNAKRMVYLQMNSLRAEDTAVYYCAAAGVRAEDGRVRTLPSEYTFWGQGTQVTVSS

In the first test the target is T1, human TNFR1 (on human cells). The test can be described thus: cell-based or functional assay.
Take B1: the “IC50, inhibition of TNFα-induced IL-8, A549 human lung epithelium (n = 2)” value turned out to be 1 nM; the “IC50, inhibition of TNFα-induced IL-8, Human whole blood (n = 3-5)” value is 0.9 nM; the “IC50, inhibition of TNFα-induced IL-8, MRC5 human lung fibroblast (n = 3)” value stood at 3.5 nM.

For the molecule B2, the “IC50, inhibition of TNFα-induced IL-8, A549 human lung epithelium (n = 2)” value worked out at 1 nM; the “IC50, inhibition of TNFα-induced IL-8, Human whole blood (n = 3-5)” value stood at 1.6 nM; the “IC50, inhibition of TNFα-induced IL-8, MRC5 human lung fibroblast (n = 3)” value worked out at 4.8 nM.

In the next test the target is T2, cynomolgus monkey TNFR1 (on monkey …). The test can be described thus: cell-based or functional assay.
Take B1: the “IC50, inhibition of LPS-induced IL-8, Cynomolgus monkey whole blood (n = 3)” value is 0.4 nM and the “IC50, inhibition of TNFα-induced IL-8, CYNOMK1 Cynomolgus monkey skin fibroblasts (n = 2)” value came out at 4.7 nM.

Consider B2, for which the “IC50, inhibition of LPS-induced IL-8, Cynomolgus monkey whole blood (n = 3)” value worked out at 0.5 nM and the “IC50, inhibition of TNFα-induced IL-8, CYNOMK1 Cynomolgus monkey skin fibroblasts (n = 2)” value amounted to 4.8 nM.

In the next test the target is pre-existing anti-VH ADA in human serum. The test can be described thus: ADA confirmation assay (MSD) described previously, mean of 10 donor sera.
In the case of B3, the % inhibition in confirmation assay stood at 27.7%.

B4: the % inhibition in confirmation assay was 14.8%.

B5: the % inhibition in confirmation assay turned out to be 95.1%.

In turn, B6 gave a % inhibition in confirmation assay of 12.8%.

B7 registered a % inhibition in confirmation assay of 29%.

The molecule B8 registered a % inhibition in confirmation assay of 13.4%.

The target in a further test is T3, Recombinant human TNFR1-Fc. Briefly: ELISA: dAb on coated recombinant human TNFR1-Fc, anti-Vh detection.
As for B9, the concentration giving a half-maximal response (EC50) was 0.76 nM.

Regarding B10, the EC50 stood at 1.64 nM.

For the molecule B11, the EC50 was 3.5 nM.

B12: the half-maximal effective concentration (EC50) was 0.75 nM.

As to B13, the EC50 was 0.86 nM.

In the case of B14, the EC50 is 0.59 nM.

For the molecule B15, the concentration for a half-maximal effect (EC50) was determined as 2.03 nM.

Regarding B16, the EC50 was found to be 0.96 nM.

For the molecule B17, the EC50 worked out at 0.67 nM.

For another test, the target named is pre-existing anti-VH ADA in human serum. The test can be described thus: ADA confirmation assay of Example 2 (MSD): test material against labelled DOM1H-131-206.
Molecule B18 gave a Mean % Inhibition of 94.2%.

The target in another test is T4, cynomolgus monkey TNFR1. Briefly: SPR (Biacore T100), same format with cynomolgus monkey TNFR1, dAb as analyte, 1:1 model.
As for B1, the Kd was 0.0197 nM, the dissociation rate constant (koff) amounted to 0.000189 s⁻¹ and the kon amounted to 9.6e+06 M⁻¹ s⁻¹.

In turn, B2 showed a Kd of 0.015 nM, a dissociation rate constant (koff) of 0.000151 s⁻¹ and an on-rate (kon) of 1.01e+07 M⁻¹ s⁻¹.

In another test the target is pre-existing anti-VH ADA in human serum. The test can be described thus: ADA confirmation assay (MSD): 10 ug/mL test material against labelled DOM1H-131-206, mean of 10 sera.
B1: the Mean % inhibition of signal in confirmation assay is 15.7%.

In the case of B2, the Mean % inhibition of signal in confirmation assay is 96.1% and 99.5%.

The molecule B9 came in with a Mean % inhibition of signal in confirmation assay of 99.3%.

B10 showed a Mean % inhibition of signal in confirmation assay of 91.3%.

B11 gave a Mean % inhibition of signal in confirmation assay of 99.1%.

Take B12: the Mean % inhibition of signal in confirmation assay worked out at 50.2%.

Molecule B13 yielded a Mean % inhibition of signal in confirmation assay of 99.5%.

As to B14, the Mean % inhibition of signal in confirmation assay worked out at 87.3%.

B15 displayed a Mean % inhibition of signal in confirmation assay of 61.6%.

Take B16: the Mean % inhibition of signal in confirmation assay turned out to be 99.4%.

B17: the Mean % inhibition of signal in confirmation assay turned out to be 99.5%.

The next test shares this target. The test is described as above. The source holds these as a separate data set.
For B1, the Mean % inhibition of signal in confirmation assay was 1.12%.

For the next test, the target named is T3, Recombinant human TNFR1-Fc. The test can be described thus: SPR (Biacore T100): TNFR1:Fc captured by anti-human IgG on a CM4 chip, dAb as analyte, 1:1 model.
As for B1, the Kd worked out at 0.0253 nM, the koff amounted to 0.000229 s⁻¹ and the association rate constant (kon) was 9.02e+06 M⁻¹ s⁻¹.

For B2, the Kd was 0.0143 nM, the koff was 0.000142 s⁻¹ and the on-rate (kon) stood at 9.94e+06 M⁻¹ s⁻¹.

The target of the next test is pre-existing anti-VH ADA in human serum. The test can be described thus: ADA confirmation assay (MSD): 10 ug/mL test material against labelled DOM1H-131-206; share of 10 ADA-positive sera with binding.
For B2, the % subjects with ADA binding (10 subjects) (% of subjects) amounted to 100.

Turning to B9, the % subjects with ADA binding (10 subjects) (% of subjects) turned out to be 100.

As for B10, the % subjects with ADA binding (10 subjects) (% of subjects) came to 100.

In the case of B11, the % subjects with ADA binding (10 subjects) (% of subjects) was found to be 100.

In the case of B12, the % subjects with ADA binding (10 subjects) (% of subjects) stood at 60.

Molecule B13 yielded a % subjects with ADA binding (10 subjects) (% of subjects) of 100.

B14 displayed a % subjects with ADA binding (10 subjects) (% of subjects) of 100.

As for B15, the % subjects with ADA binding (10 subjects) (% of subjects) came to 100.

In turn, B16 registered a % subjects with ADA binding (10 subjects) (% of subjects) of 100.

B17 came in with a % subjects with ADA binding (10 subjects) (% of subjects) of 100.
